According to patent publication US20060019871A1, “Endothelial cell apoptosis induced by fibrinogen gamma chain C-terminal fragment” (The Regents of the University of California, priority 2004, published 2006):
Where two headings read alike, the source gives them in different places.

How the values were obtained:
[1] = test system: γC-399tr-induced apoptosis; experiment: Blocking of γC-399tr-induced apoptosis by MAPK inhibitors (FIG. 6); format: cell-based
Experimental: 10 μM of inhibitor is the saturating concentration.
It was further observed that endothelial cell apoptosis induced by γC-399tr can be blocked by p38 MAP kinase inhibitor SB-203580 but not inhibitors of some other MAP kinases.

[2] = test system: DLD-1 human colon adenocarcinoma cells; experiment: Tumor growth of DLD-1 xenograft in SCID mice; format: in vivo; details: injections of recombinant γC-399tr in PBS
Experimental: Human breast adenocarcinoma BT20 cells are subcutaneously injected into 7-9-week-old male non-obese diabetes/severe combined immunodeficiency (NOD/SCID) mice. The animals are divided into 4 groups, each having 5 animals. Each animal receives 2×10^6 cells in the injection. The treatment groups, Groups 1-3, are injected daily intraperitoneally with recombinant γC. The control group, Group 4, receives injections of equal volumes of PBS each day. The dimensions of the tumors are measured and the tumor volumes are calculated. After two weeks of treatment, the animals are sacrificed and the tumors are excised, sectioned, and evaluated histologically. To examine the tumor vasculatures, the tumor sections are stained by CD31 anti-mouse monoclonal antibody (PharMingen, San Diego, Calif.). Tumor size and the extent of tumor vasculature are compared among all treatment and control groups.
Following the general procedure described in Example 2, DLD-1 human colon adenocarcinoma cells were injected into SCID mice. Subsequently, the treatment groups of mice received injections of recombinant γC-399tr in PBS, whereas the control group received PBS injections.

[3] = test system: Bovine Arterial Endothelial (BAE) cell; experiment: Growth arrest of BAE cells in culture (FIG. 1); format: cell-based
Experimental: FIG. 1. Fibrinogen γC-induced growth arrest of Bovine Arterial Endothelial (BAE) cell. […] Fragment D required much higher concentrations (100 μg/ml) to induce detectable apoptotic effects.

[4] = test system: CHO cells; experiment: MTS (CellTiter96) proliferation assay, CHO cells (FIG. 2); format: cell-based, Chinese hamster
Experimental: (§1) FIG. 2. […] The numbers of proliferating cells were determined using a tetrazolium compound MTS (CellTiter96® assay).

[5] = test system: BAE cells; experiment: MTS (CellTiter96) proliferation assay, BAE cells (FIG. 2); format: cell-based, bovine
Experimental: as §1

[6] = test system: caspase-3 and caspase-7; experiment: Activation of caspases by γC in CPAE cells; format: cell-based, calf; details: protein expression and enzymatic activity
[7] = test system: MAP kinases Erk1 and 2; experiment: Activation of MAP kinases Erk1 and 2, western blotting in β3-CHO cells (FIG. 4); format: cell-based, Chinese hamster; details: soluble γC in the medium, 30 min
Experimental: FIG. 4. Fibrinogen γC-induced activation of MAP kinases Erk1 and 2. CHO cells expressing recombinant αvβ3 (β3-CHO cells) were incubated with soluble γC at indicated concentrations for 30 min and the levels of MAP kinases (Erk1 and 2) were determined by western blotting with anti-phosphorylated Erk 1 and 2.
It remains a possibility that γC acts as an antagonist and blocks signaling from other integrin ligands by competing for binding to integrins.

[8] = test system: BAE cells; experiment: Annexin V / propidium iodide binding, flow cytometry, apoptosis of BAE cells (FIG. 3); format: cell-based, bovine
Experimental: FIGS. 3A and 3B. […] BAE cells were treated with 10 μg/ml recombinant soluble γC or native fibrinogen for the indicated time. The binding of annexin V or propidium iodide (PI) to the treated BAE cells was measured in flow cytometry (FIG. 3A).

[9] = test system: β3-CHO cells; experiment: MTS (CellTiter96) proliferation assay, β3-CHO cells (FIG. 2); format: cell-based, Chinese hamster
Experimental: as §1

[10] = test system: calf pulmonary artery endothelial (CPAE) cells; experiment: CPAE proliferation / apoptosis, MTS and Phosphate assay (FIG. 5); format: cell-based
Experimental: FIG. 5. Inhibition of CPAE Proliferation induced by fibrinogen γC and γC-399tr. CPAE proliferation was measured by using a MTS and Phosphate assay. 10% serum-induced proliferation was inhibited by γC in a concentration-dependent fasion 48 hours passed after 1×10^5/ml. The γC-399tr is approximately 3 times more efficient in inducing apoptosis of CPAE cells.
A deletion mutant of γC that has 12 amino acids truncated from the C-terminal of γC, termed γC-399tr (having the amino acid sequence of 1-249 of SEQ ID NO:3), was recombinantly produced and purified.

`C[S+]([O-])c1ccc(-c2nc(-c3ccncc3)c(-c3ccc(F)cc3)[nH]2)cc1` (stereo not drawn) [SB-203580] was tested, and the “saturating concentration of inhibitor for blocking γC-399tr-induced apoptosis” value [1] was 10 µM and the “blocking of γC-399tr-induced apoptosis” value ([1]; endothelial cell) was “blocks”.

B1: γC-399tr: Deletion mutant of γC with 12 amino acids truncated from the C-terminal; amino acid sequence 1-249 of SEQ ID NO:3 (protein, listed as Homo sapiens)
chain: KDCQDIANKGAKQSGLYFIKPLKANQQFLVYCEIDGSGNGWTVFQKRLDGSVDFKKNWIQYKEGFGHLSPTGTTEFWLGNEKIHLISTQSAIPYALRVELEDWNGRTSTADYAMFKVGPEADKYRLTYAYFAGGDAGDAFDGFDFGDDPSDKFFTSHNGMQFSTWDNDNDKFEGNCAEQDGSGWWMNKCHAGHLNGVYYQGGTYSKASTPNGYDNGIIWATWKTRWYSMKKTTMKIIPFNRLTIGEGQQ
modifications: C-terminal region of fibrinogen gamma chain, isoform gamma-A, residues 177-437
With B1 the “tumor size versus PBS control group” value [2] was “reduced tumor size”.

B2: γC: Fibrinogen γ-chain C-terminal domain, 30 Kd, about 250 amino acid residues, sequence as set forth in SEQ ID NO:3 (protein, listed as Homo sapiens)
chain: KDCQDIANKGAKQSGLYFIKPLKANQQFLVYCEIDGSGNGWTVFQKRLDGSVDFKKNWIQYKEGFGHLSPTGTTEFWLGNEKIHLISTQSAIPYALRVELEDWNGRTSTADYAMFKVGPEADKYRLTYAYFAGGDAGDAFDGFDFGDDPSDKFFTSHNGMQFSTWDNDNDKFEGNCAEQDGSGWWMNKCHAGHLNGVYYQGGTYSKASTPNGYDNGIIWATWKTRWYSMKKTTMKIIPFNRLTIGEGQQHHLGGAKQAGDV
modifications: C-terminal region of fibrinogen gamma chain, isoform gamma-A, residues 177-437
In the case of B2, the “proliferation of BAE cells” value ([3]; 12.5 μg/ml each in culture media, 1×10^4 cells per well, 48 hours) is reported as “blocked proliferation”, the “concentration blocking proliferation of BAE cells” value ([3]; FIG. 1 as cited) is reported as “less than 1 μg/ml” and the “effect on proliferation of CHO cells” value [4] is reported as “little or no effect”. The “effect on proliferation of CHO cells” value ([4]; listed as γC domain) was “not”, the “level of γC effectively blocking proliferation of BAE cells” value [5] was “below 1 μg/ml” and the “proliferation of BAE cells in the MTS assay” value [5] was “blocked proliferation”. For the same molecule, the “activation of caspase-3 and caspase-7” value [6] was “activation of caspase-3 and caspase-7”, the “concentration inducing MAP kinase activation” value [7] was “less than 1 μg/ml” and the “induction of apoptosis of BAE cells” value ([8]; 10 μg/ml, annexin V / PI binding) was “induced apoptosis”. For the same molecule, the “time at which apoptosis of BAE cells was detectable” value ([8]; 10 μg/ml, annexin V / PI flow cytometry) was 2 to 4 h, the “time in which apoptosis of BAE cells was induced” value ([8]; annexin V binding assays) was 2 to 4 h and the “effect on proliferation of β3-CHO cells” value [9] was “little or no effect”. The “effect on proliferation of β3-CHO cells” value ([9]; listed as γC domain) was “not”, the “apoptosis in CPAE cells” value [10] was “induced apoptosis” and the “10% serum-induced CPAE proliferation” value ([10]; 48 hours, 1×10^5/ml) was “inhibited”.
